{"source": "patent US20190330277A1", "key": {"[1]": {"biological_target": "bRSV RB94 DSCav1 (bovine respiratory syncytial virus, strain RB94) (UniProt P23728)", "experiment": "biolayer interferometry Octet binding analysis"}, "[2]": {"biological_target": "bRSV RB94 DSCav1 (bovine respiratory syncytial virus, strain RB94) (UniProt P23728)"}, "[3]": {"biological_target": "RB94 sc9 DS-CAV1 A149C-Y458C L373R", "experiment": "ELISA, variant from culture supernatant on Ni-NTA plate"}}, "data": [{"substance": "motavizumab (antibody)", "values": [{"measurement": "response level (biolayer interferometry)", "setting": "[1]", "result": 0.5, "unit": "nm"}, {"measurement": "ELISA binding value", "setting": "[2]", "result": 0.371}, {"measurement": "ELISA binding value", "setting": "[3]", "result": 0.564}]}]}
